Experimental data published in IntAct's records for PubMed 24794838.

B1: PIH1 domain-containing protein 1 (Mus musculus), Q9CQJ2 (parent)
chain: MADSTFLAPELSDTESMGEETVRFQELLLKASKELQQAQTARPDSTQIQPKPGFCVKTNSSEGKVFINICHSPSIPPPADVTEDELLQMLEEDQAGFRIPMSLGEPHAELDAKGQGCTAYDVAVNSNFYLRMQNSDFLRELVVTIAREGLEDKYGLQLNPEWRMLKYRSFLGSISQQNIRSQQRPRIQELGTLDASGSLGTCHGPERPHLNLWLEAPDLLLAEVDLPKLDGAQGLALEIGENRLVIGGPQQLYHLDATVPLRINSEASRAAFHRRRKQLMVSMPLLTASS

Variants of: B1
Settings: with telo2_mouse Telo2, Q9DC40
telo2_mouse Telo2, Q9DC40, sequence (Q9DC40 whole entry): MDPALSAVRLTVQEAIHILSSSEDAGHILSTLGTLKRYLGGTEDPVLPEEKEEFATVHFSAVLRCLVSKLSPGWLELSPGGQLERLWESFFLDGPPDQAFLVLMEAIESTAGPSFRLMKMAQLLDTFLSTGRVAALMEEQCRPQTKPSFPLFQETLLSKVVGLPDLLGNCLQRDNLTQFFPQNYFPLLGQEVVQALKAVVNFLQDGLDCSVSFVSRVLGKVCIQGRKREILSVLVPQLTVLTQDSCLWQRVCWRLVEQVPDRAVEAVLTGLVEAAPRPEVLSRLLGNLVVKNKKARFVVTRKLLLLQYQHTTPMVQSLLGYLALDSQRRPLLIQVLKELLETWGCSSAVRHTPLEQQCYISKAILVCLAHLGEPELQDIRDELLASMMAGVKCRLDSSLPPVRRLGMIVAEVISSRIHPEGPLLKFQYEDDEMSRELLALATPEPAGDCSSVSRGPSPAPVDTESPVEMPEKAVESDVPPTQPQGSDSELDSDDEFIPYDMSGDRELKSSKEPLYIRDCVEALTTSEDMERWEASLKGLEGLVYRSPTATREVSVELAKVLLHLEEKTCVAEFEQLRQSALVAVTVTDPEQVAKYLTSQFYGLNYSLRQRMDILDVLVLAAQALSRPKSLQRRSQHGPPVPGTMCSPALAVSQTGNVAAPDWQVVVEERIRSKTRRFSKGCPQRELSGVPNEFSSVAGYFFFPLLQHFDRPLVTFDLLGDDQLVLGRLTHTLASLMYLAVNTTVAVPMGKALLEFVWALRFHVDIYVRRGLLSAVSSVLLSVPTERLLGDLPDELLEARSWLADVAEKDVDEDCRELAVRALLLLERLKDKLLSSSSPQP

With MADSTFLAPELSDTESMGEETVRFQELLLKASKELQQAQTARPDSTQIQPKPGFCVKTNSSEGEVFINICHSPSIPPPADVTEDELLQMLEEDQAGFRIPMSLGEPHAELDAKGQGCTAYDVAVNSNFYLRMQNSDFLRELVVTIAREGLEDKYGLQLNPEWRMLKYRSFLGSISQQNIRSQQRPRIQELGTLDASGSLGTCHGPERPHLNLWLEAPDLLLAEVDLPKLDGAQGLALEIGENRLVIGGPQQLYHLDATVPLRINSEASRAAFHRRRKQLMVSMPLLTASS [K64E] as the variant, how does the “effect of a mutation on the interaction” value read?
The value was “disrupting interaction strength”.

MADSTFLAPELSDTESMGEETVRFQELLLKASKELQQAQTARPDSTQIQPKPGFCVETNSSEGKVFINICHSPSIPPPADVTEDELLQMLEEDQAGFRIPMSLGEPHAELDAKGQGCTAYDVAVNSNFYLRMQNSDFLRELVVTIAREGLEDKYGLQLNPEWRMLKYRSFLGSISQQNIRSQQRPRIQELGTLDASGSLGTCHGPERPHLNLWLEAPDLLLAEVDLPKLDGAQGLALEIGENRLVIGGPQQLYHLDATVPLRINSEASRAAFHRRRKQLMVSMPLLTASS [K57E] was tested. Which “effect of a mutation on the interaction” value did it give?
The value was “disrupting interaction strength”.
